From doi:10.1101/2022.11.12.516293
Like-named read-outs stand apart in the source and are kept apart here.

Key:
Assay in all cases: EMSA
[1] = molecular target: T1, PU.1 (UniProt P17947 1-270)
[2] = molecular target: T1, PU.1; remark: listed apart in the source
[3] = molecular target: T1, PU.1; remark: listed apart in the source

B1: rs1412445-T (dsDNA)
DNA 1: GGTCATTAGGAGGATGTTGGTGCTATTAATAATAGAG
DNA 2: CTCTATTATTAATAGCACCAACATCCTCCTAATGACC
binding result [1]: no binding

B2: rs1412444-T (dsDNA)
DNA 1: CTATTTGCCTTTAAACACTGGAAATAACACCAGTGGC
DNA 2: GCCACTGGTGTTATTTCCAGTGTTTAAAGGCAAATAG
binding result [2]: binds

B3: rs1320496-T (dsDNA)
DNA 1: CAGGAGGGGAAGTGGGATGCATGAGAAGAGGACGCGTTTC
DNA 2: GAAACGCGTCCTCTTCTCATGCATCCCACTTCCCCTCCTG
binding result [3]: binds
